According to patent US20160106861A1, “AXL ANTIBODY-DRUG CONJUGATE AND ITS USE FOR THE TREATMENT OF CANCER” (PIERRE FABRE MEDICAMENT, priority 2013, published 2016):

Assays:
[1] = molecular target: T1, human Axl receptor on the surface of human tumor cells (human, UniProt P30530 26-894); assay: flow cytometry on human tumor cells
T1 construct: Endogenous Axl on human tumor cell lines (SN12C, Calu-1, MDA-MB435S, MDA-MB231, NCI-H125, Panc1); also called cell-surface Axl; membrane Axl receptor
T1 sequence: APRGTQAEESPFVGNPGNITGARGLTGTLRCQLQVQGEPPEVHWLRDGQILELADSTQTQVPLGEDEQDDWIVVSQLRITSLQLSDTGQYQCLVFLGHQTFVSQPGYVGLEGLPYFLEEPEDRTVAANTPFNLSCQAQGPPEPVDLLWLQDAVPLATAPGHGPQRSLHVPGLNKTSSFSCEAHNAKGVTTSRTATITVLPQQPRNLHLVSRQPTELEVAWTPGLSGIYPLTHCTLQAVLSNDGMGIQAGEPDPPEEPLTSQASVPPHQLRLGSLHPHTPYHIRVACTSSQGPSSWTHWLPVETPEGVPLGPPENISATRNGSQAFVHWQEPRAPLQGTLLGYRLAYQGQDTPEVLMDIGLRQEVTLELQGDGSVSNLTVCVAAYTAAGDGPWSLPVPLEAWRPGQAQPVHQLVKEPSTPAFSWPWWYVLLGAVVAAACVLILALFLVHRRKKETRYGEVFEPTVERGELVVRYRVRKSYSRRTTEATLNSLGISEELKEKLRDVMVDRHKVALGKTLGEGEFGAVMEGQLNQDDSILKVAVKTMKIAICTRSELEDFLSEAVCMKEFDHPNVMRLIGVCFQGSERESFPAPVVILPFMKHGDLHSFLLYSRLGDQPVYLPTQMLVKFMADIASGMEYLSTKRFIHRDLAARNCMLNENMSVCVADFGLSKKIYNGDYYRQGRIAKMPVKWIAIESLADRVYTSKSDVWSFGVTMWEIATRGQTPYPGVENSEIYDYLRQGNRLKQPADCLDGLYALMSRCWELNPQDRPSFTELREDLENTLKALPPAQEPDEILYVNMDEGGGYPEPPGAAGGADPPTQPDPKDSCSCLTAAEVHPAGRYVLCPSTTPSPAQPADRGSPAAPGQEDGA

rhAxl-Fc protein = molecular target: T2, rhAxl-Fc protein (Homo sapiens, UniProt P30530); assay: ELISA binding on immobilized rhAxl-Fc protein; details: starting concentration 5 μg/ml, 1/2 serial dilutions
T2 construct: purchased R and D Systems 154AL/CF
T2 sequence (P30530 26-451 limits assumed): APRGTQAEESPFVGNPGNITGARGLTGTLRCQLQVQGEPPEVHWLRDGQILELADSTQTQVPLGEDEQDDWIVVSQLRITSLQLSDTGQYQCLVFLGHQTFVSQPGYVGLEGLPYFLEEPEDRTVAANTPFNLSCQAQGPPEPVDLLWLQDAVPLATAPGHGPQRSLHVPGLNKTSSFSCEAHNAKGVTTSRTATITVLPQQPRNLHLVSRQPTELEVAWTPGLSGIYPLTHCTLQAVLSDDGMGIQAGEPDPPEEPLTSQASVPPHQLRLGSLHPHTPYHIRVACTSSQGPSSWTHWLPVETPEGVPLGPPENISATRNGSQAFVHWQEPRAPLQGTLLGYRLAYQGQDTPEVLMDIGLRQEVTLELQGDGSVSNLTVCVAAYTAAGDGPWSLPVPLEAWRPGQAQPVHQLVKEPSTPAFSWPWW
Method: Briefly, the recombinant human Axl-Fc (R and D systems, cat N° 154AL/CF), rhDtk (R and D Systems, cat N° 859-DK) or rhMer-Fc (R and D Systems, cat N° 891-MR) proteins were coated overnight at 4° C. to Immulon II 96-well plates and, after a 1 h blocking step with a 0.5% gelatine solution, 1613F12 was added for an additional 1 h at 37° C. at starting concentration of 5 μg/ml (3.33 10^−8M). Then ½ serial dilutions were done over 12 columns. Plates were washed and a goat anti-mouse (Jackson) specific IgG-HRP was added for 1 h at 37° C. Reaction development was performed using the TMB substrate solution. The isotype control antibody mIgG1 and the commercial anti-Axl Mab 154 antibody were also used in parallel. Coating controls were performed in presence of a goat anti-human IgG Fc polyclonal serum labelled with HRP (Jackson, ref 109-035-098) and/or in presence of a HRP-coupled anti-Histidine antibody (R and D Systems, ref: MAB050H).

binding result [1]: binds
binding on rhAxl-Fc protein (ELISA) (rhAxl-Fc protein): only binds to the rhAxl-Fc protein
B1: m1613F12 (murine 1613F12, hybridoma CNCM I-4505) (antibody, V domains shown)
VH: EVHLQQSGAELVKPGASVKLSCTASGFNIRDTYIHWVKQRPEQGLEWIGRLDPANGHTKYGPNFQGRATMTSDTSSNTAYLQLSSLTSEDTAVYYCARGAYYYGSSGLFYFDYWGQGTTLSVSS
VL: DVQITQSPSYLATSPGETITINCRASKSISKYLAWYQEKPGKTNKLLIYSGSTLQSGVPSRFSGSGSGTDFTLTISSLEPEDFAMYFCQQHHEYPLTFGAGTELELK
notes: Murine monoclonal antibody; also called Axl antibody
